Assays:
Assay in all cases: cell-based or functional assay
[1] = biological target: HIV-1 92RW008 Env (HIV-1)
[2] = biological target: HIV-1 92TH021 Env (HIV-1)
[3] = biological target: HIV-1 92UG031 Env (HIV-1)
[4] = biological target: HIV-1 92UG037 Env (HIV-1)
[5] = biological target: HIV-1 92WR009 Env (HIV-1)
[6] = biological target: HIV-1 92WR020 Env (HIV-1)
[7] = biological target: HIV-1 92WR021 Env (HIV-1)
[8] = biological target: HIV-1 92WR024 Env (HIV-1)
[9] = biological target: HIV-1 92WR026 Env (HIV-1)
[10] = biological target: HIV-1 93UG077 Env (HIV-1)
[11] = biological target: HIV-1 93WR029 Env (HIV-1)
[12] = biological target: HIV-1 94KE105 Env (HIV-1)
[13] = biological target: HIV-1 94UG103 Env (HIV-1)
HIV-1 CMU02 Env (HIV-1) = biological target: HIV-1 CMU02 Env (HIV-1)
[14] = biological target: HIV-1 MGRM-A-001 Env (HIV-1)
[15] = biological target: HIV-1 MGRM-A-002 Env (HIV-1)
[16] = biological target: HIV-1 MGRM-A-003 Env (HIV-1)
[17] = biological target: HIV-1 MGRM-A-004 Env (HIV-1)
[18] = biological target: HIV-1 MGRM-A-005 Env (HIV-1)
[19] = biological target: HIV-1 MGRM-A-006 Env (HIV-1)
[20] = biological target: HIV-1 MGRM-A-007 Env (HIV-1)
[21] = biological target: HIV-1 MGRM-A-008 Env (HIV-1)
[22] = biological target: HIV-1 MGRM-A-009 Env (HIV-1)
[23] = biological target: HIV-1 MGRM-A-010 Env (HIV-1)
[24] = biological target: HIV-1 MGRM-A-011 Env (HIV-1)
[25] = biological target: HIV-1 MGRM-A-012 Env (HIV-1)
[26] = biological target: HIV-1 MGRM-A-013 Env (HIV-1)
[27] = biological target: HIV-1 MGRM-A-014 Env (HIV-1)
[28] = biological target: HIV-1 MGRM-AE-001 Env (HIV-1)
[29] = biological target: HIV-1 MGRM-AE-002 Env (HIV-1)
[30] = biological target: HIV-1 MGRM-AE-003 Env (HIV-1)
[31] = biological target: HIV-1 MGRM-AE-004 Env (HIV-1)
[32] = biological target: HIV-1 MGRM-AE-005 Env (HIV-1)
[33] = biological target: HIV-1 MGRM-AE-006 Env (HIV-1)
[34] = biological target: HIV-1 MGRM-AE-007 Env (HIV-1)
[35] = biological target: HIV-1 MGRM-AE-008 Env (HIV-1)
[36] = biological target: HIV-1 MGRM-AG-001 Env (HIV-1)
[37] = biological target: HIV-1 MGRM-AG-002 Env (HIV-1)
[38] = biological target: HIV-1 MGRM-AG-003 Env (HIV-1)
[39] = biological target: HIV-1 MGRM-AG-005 Env (HIV-1)
[40] = biological target: HIV-1 MGRM-AG-006 Env (HIV-1)
[41] = biological target: HIV-1 MGRM-AG-008 Env (HIV-1)
[42] = biological target: HIV-1 MGRM-AG-009 Env (HIV-1)
[43] = biological target: HIV-1 MGRM-AG-011 Env (HIV-1)
[44] = biological target: HIV-1 MGRM-AG-012 Env (HIV-1)
[45] = biological target: HIV-1 MGRM-AG-013 Env (HIV-1)
HIV-1 VLGCA1 Env (HIV-1) = biological target: HIV-1 VLGCA1 Env (HIV-1)

5123_A06 (PGT-125) (antibody)
IC50 [1]: 0.004 µg/mL
IC50 [2]: 0.006 µg/mL
IC50 [3]: > 50 µg/mL
IC50 [4]: 0.005 µg/mL
IC50 [5]: 0.144 µg/mL
IC50 [6]: 0.004 µg/mL
IC50 [7]: 0.005 µg/mL
IC50 [8]: 35.5 µg/mL
IC50 [9]: 0.007 µg/mL
IC50 [10]: 0.012 µg/mL
IC50 [11]: > 50 µg/mL
IC50 [12]: 0.004 µg/mL
IC50 [13]: 0.008 µg/mL
IC50 (HIV-1 CMU02 Env (HIV-1)): > 50 µg/mL
IC50 [14]: 12.4 µg/mL
IC50 [15]: 0.013 µg/mL
IC50 [16]: > 50 µg/mL
IC50 [17]: > 50 µg/mL
IC50 [18]: > 50 µg/mL
IC50 [19]: > 50 µg/mL
IC50 [20]: > 50 µg/mL
IC50 [21]: > 50 µg/mL
IC50 [22]: 0.009 µg/mL
IC50 [23]: 0.004 µg/mL
IC50 [24]: > 50 µg/mL
IC50 [25]: 0.177 µg/mL
IC50 [26]: 0.014 µg/mL
IC50 [27]: 13.9 µg/mL
IC50 [28]: 2.95 µg/mL
IC50 [29]: > 50 µg/mL
IC50 [30]: 0.092 µg/mL
IC50 [31]: > 50 µg/mL
IC50 [32]: 0.01 µg/mL
IC50 [33]: 0.009 µg/mL
IC50 [34]: 0.876 µg/mL
IC50 [35]: > 50 µg/mL
IC50 [36]: > 50 µg/mL
IC50 [37]: > 50 µg/mL
IC50 [38]: > 50 µg/mL
IC50 [39]: > 50 µg/mL
IC50 [40]: 0.008 µg/mL
IC50 [41]: > 50 µg/mL
IC50 [42]: 0.026 µg/mL
IC50 [43]: > 50 µg/mL
IC50 [44]: > 50 µg/mL
IC50 [45]: 0.004 µg/mL
IC50 (HIV-1 VLGCA1 Env (HIV-1)): 0.078 µg/mL

5141_B17 (PGT-126) (antibody)
IC50 [1]: 0.008 µg/mL
IC50 [2]: 0.197 µg/mL
IC50 [3]: > 50 µg/mL
IC50 [4]: 0.011 µg/mL
IC50 [5]: > 50 µg/mL
IC50 [6]: 0.006 µg/mL
IC50 [7]: 0.006 µg/mL
IC50 [8]: 42 µg/mL
IC50 [9]: 0.008 µg/mL
IC50 [10]: 0.02 µg/mL
IC50 [11]: > 50 µg/mL
IC50 [12]: 0.006 µg/mL
IC50 [13]: 0.008 µg/mL
IC50 (HIV-1 CMU02 Env (HIV-1)): > 50 µg/mL
IC50 [14]: > 50 µg/mL
IC50 [15]: 0.015 µg/mL
IC50 [16]: > 50 µg/mL
IC50 [17]: > 50 µg/mL
IC50 [18]: > 50 µg/mL
IC50 [19]: > 50 µg/mL
IC50 [20]: > 50 µg/mL
IC50 [21]: > 50 µg/mL
IC50 [22]: 0.004 µg/mL
IC50 [23]: 0.002 µg/mL
IC50 [24]: > 50 µg/mL
IC50 [25]: 0.097 µg/mL
IC50 [26]: 0.006 µg/mL
IC50 [27]: 0.01 µg/mL
IC50 [28]: 9.68 µg/mL
IC50 [29]: > 50 µg/mL
IC50 [30]: > 50 µg/mL
IC50 [31]: > 50 µg/mL
IC50 [32]: 0.324 µg/mL
IC50 [33]: 17.3 µg/mL
IC50 [34]: > 50 µg/mL
IC50 [35]: > 50 µg/mL
IC50 [36]: > 50 µg/mL
IC50 [37]: > 50 µg/mL
IC50 [38]: > 50 µg/mL
IC50 [39]: 1.21 µg/mL
IC50 [40]: 0.01 µg/mL
IC50 [41]: > 50 µg/mL
IC50 [42]: 0.03 µg/mL
IC50 [43]: 24.5 µg/mL
IC50 [44]: > 50 µg/mL
IC50 [45]: 0.008 µg/mL
IC50 (HIV-1 VLGCA1 Env (HIV-1)): > 50 µg/mL

5145_B14 (PGT-127) (antibody)
IC50 [1]: 0.012 µg/mL
IC50 [2]: > 50 µg/mL
IC50 [3]: > 50 µg/mL
IC50 [4]: 0.014 µg/mL
IC50 [5]: > 50 µg/mL
IC50 [6]: 0.01 µg/mL
IC50 [7]: 0.011 µg/mL
IC50 [8]: > 50 µg/mL
IC50 [9]: 0.024 µg/mL
IC50 [10]: 0.055 µg/mL
IC50 [11]: > 50 µg/mL
IC50 [12]: 0.023 µg/mL
IC50 [13]: 0.017 µg/mL
IC50 (HIV-1 CMU02 Env (HIV-1)): > 50 µg/mL
IC50 [14]: > 50 µg/mL
IC50 [15]: 9.42 µg/mL
IC50 [16]: > 50 µg/mL
IC50 [17]: > 50 µg/mL
IC50 [18]: > 50 µg/mL
IC50 [19]: > 50 µg/mL
IC50 [20]: > 50 µg/mL
IC50 [21]: > 50 µg/mL
IC50 [22]: 0.013 µg/mL
IC50 [23]: 0.017 µg/mL
IC50 [24]: > 50 µg/mL
IC50 [25]: 0.105 µg/mL
IC50 [26]: 0.029 µg/mL
IC50 [27]: 0.24 µg/mL
IC50 [28]: > 50 µg/mL
IC50 [29]: > 50 µg/mL
IC50 [30]: > 50 µg/mL
IC50 [31]: > 50 µg/mL
IC50 [32]: > 50 µg/mL
IC50 [33]: > 50 µg/mL
IC50 [34]: > 50 µg/mL
IC50 [35]: > 50 µg/mL
IC50 [36]: > 50 µg/mL
IC50 [37]: > 50 µg/mL
IC50 [38]: > 50 µg/mL
IC50 [39]: > 50 µg/mL
IC50 [40]: 0.021 µg/mL
IC50 [41]: > 50 µg/mL
IC50 [42]: 0.059 µg/mL
IC50 [43]: > 50 µg/mL
IC50 [44]: > 50 µg/mL
IC50 [45]: 0.018 µg/mL
IC50 (HIV-1 VLGCA1 Env (HIV-1)): > 50 µg/mL

Reference: patent US20160264649A1
